Reference: paper PMC3017759

Columns and labels:
[1] = molecular target: IL4Rα (Homo sapiens) (UniProt P24394); details: cited from earlier work
[2] = molecular target: IL13Rα1 (Homo sapiens) (UniProt P78552); details: cited from earlier work
[3] = molecular target: γc (Homo sapiens) (UniProt P31785); details: cited from earlier work
[4] = molecular target: M. musculus (C57BL/6) IL4Rα extracellular domain (M. musculus (C57BL/6)) (UniProt P16382); test: SPR; BIAcore 2000; about 1400 RU of IL4Rα immobilised on a CM5 chip by amine linkage; graded doses of IL4 in the mobile phase; HBS-EP (10 mM HEPES pH 7.4, 150 mM NaCl, 3 mM EDTA, 0.005% P-20); 25°C; flow 3 μl/min; 1:1 Langmuir fit; average of two independent experiments on two chips
Chain of UniProt P16382 (P16382 26-233): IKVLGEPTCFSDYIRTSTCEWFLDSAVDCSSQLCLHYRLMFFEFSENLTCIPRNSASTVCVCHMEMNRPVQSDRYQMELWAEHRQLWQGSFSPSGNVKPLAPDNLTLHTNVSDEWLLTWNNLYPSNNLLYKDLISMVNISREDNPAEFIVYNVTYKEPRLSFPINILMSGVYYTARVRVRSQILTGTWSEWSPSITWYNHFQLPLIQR

Chain of UniProt P78552 (P78552 22-343): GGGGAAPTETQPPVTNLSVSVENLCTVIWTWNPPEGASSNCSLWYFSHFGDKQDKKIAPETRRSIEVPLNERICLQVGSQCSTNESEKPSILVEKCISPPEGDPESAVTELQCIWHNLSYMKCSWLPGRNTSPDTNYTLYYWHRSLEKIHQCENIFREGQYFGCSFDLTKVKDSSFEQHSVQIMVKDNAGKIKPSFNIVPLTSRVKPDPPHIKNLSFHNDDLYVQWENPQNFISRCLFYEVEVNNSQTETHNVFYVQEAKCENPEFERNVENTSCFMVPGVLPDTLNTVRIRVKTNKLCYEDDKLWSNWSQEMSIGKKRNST
Chain of IL4 (P05112 25-153): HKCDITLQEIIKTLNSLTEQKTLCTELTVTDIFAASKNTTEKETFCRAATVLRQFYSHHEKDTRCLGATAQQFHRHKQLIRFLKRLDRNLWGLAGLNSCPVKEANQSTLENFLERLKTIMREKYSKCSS
Chain of UniProt P24394 (P24394 26-232): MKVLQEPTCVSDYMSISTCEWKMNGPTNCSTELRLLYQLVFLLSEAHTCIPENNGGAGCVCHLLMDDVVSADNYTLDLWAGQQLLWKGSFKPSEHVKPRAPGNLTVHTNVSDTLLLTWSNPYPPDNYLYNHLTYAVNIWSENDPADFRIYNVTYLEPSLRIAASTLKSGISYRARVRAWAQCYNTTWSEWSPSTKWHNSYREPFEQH
Chain of UniProt P31785 (P31785 23-262): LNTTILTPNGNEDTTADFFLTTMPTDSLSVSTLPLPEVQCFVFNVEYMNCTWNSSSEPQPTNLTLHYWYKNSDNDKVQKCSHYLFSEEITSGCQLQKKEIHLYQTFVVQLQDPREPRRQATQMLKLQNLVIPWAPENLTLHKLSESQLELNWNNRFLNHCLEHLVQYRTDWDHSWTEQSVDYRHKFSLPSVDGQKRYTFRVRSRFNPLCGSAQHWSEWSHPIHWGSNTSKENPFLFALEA

Which Kd [1] does the source give for IL4 (from UniProt P05112) here?
The Kd was 1 nM.

Which Kd [2] does the source give for IL4/IL4Rα complex (from UniProt P05112) here?
Its Kd is 500 nM.

What about the Kd [3] of the same substance?
Its Kd is 500 nM.

For “recombinant CAST/Ei IL4 (interleukin-4, Mus musculus castaneus allotype) (from UniProt P07750 21-140) (ligand)”, which Ka [4] is on record?
The Ka was 4.44e+09 M⁻¹.

What about the Kd [4] of the same substance?
The Kd was 0.226 nM.

What about the koff [4] of the same substance?
The koff was 0.000713 s⁻¹.

And the kon [4]?
Its kon is 3.16e+06 M⁻¹ s⁻¹.
